Among the data in article PMC6221367, “A dual regulatory circuit consisting of S-adenosylmethionine decarboxylase protein and its reaction product controls expression of the paralogous activator prozyme in Trypanosoma brucei” (PLoS Pathogens, 2018) are Km and kcat values, retold here.

Substrate in data set [1]: CSCC[C@H](N)C(=O)O
Briefly: coupled spectroscopic assay of pyrophosphate release (A340). The format is biochemical, Trypanosoma brucei. The settings on record: 150 nM enzyme, co-substrate ATP, 5 mM MgSO4 and 100 mM KCl in 50 mM HEPES assay buffer, pH 8.0, 37 °C, parenthesis = 95% CI. The text has this:
(§1) coupled spectroscopic assay of pyrophosphate release (A340) on TbAdoMetSyn

Substrate in data set [2]: Nc1ncnc2c1ncn2[C@@H]1O[C@H](COP(=O)(O)OP(=O)(O)OP(=O)(O)O)[C@@H](O)[C@H]1O
The description is as above. The format is biochemical, Trypanosoma brucei. The settings on record: 150 nM enzyme, co-substrate methionine, 5 mM MgSO4 and 100 mM KCl in 50 mM HEPES assay buffer, pH 8.0, 37 °C, parenthesis = 95% CI.
Source text: as §1

B1: TbAdoMetSyn (Trypanosoma brucei brucei TREU927) (protein)
chain: MSVRQIFFTSEHVSEGHPDKLCDQVSDAVLDACLEQDPLSKVACETCSKTGMVLVFGEITTKAVIDYQKVVRDTVKEIGFDNTEKGLDYRSLNLLVAVEQQSPDIYQGLGDFGGENLGAGDQGMMFGYATNETETLMPLSYELARGLAMTYSELRRNGGLPWARPDAKTQVTVQYEYDTRGGKQLLTPKRVAVILVSAQLDDGVSNETIREDLVKKVISTTIPAKFLDENTKYHLNPSGRFVIGGPHGDAGLTGRKIIVDTYGGWGAHGGGAFSGKDPSKVDRSAAYAARWIAKSLVAAGLADRCLVQLSYAIGVAEPLNIHVDTYGTGKRDDEYILGIVQKNFRLRPYDIIKELDLRRPIYRQTACFGHFGRVDTNGKGGFTWEVPKTLEGLSDVQ
notes: E. coli BL21(DE3); His6-tag removed by TEV protease
With B1, in data set [1], the Km was 0.031 (0.025–0.039) mM and the kcat (commonly the maximal rate divided by the concentration of active sites) was 0.19 s⁻¹. Besides, in data set [2], the Km is recorded as 0.31 (0.24–0.40) mM and the kcat was 0.21 s⁻¹.
